A short description of this series: soluble on expression in E. coli; label from the status in PepcDB or PDB records.
“MGDEYMDDDEDYGFEYEDDSGSEPDVDMENQYYTAKGLRSDGKLDEAIKSFEKVLELEGEKGEWGFKALKQMIKITFGQNRLEKMLEYYRQLLTYIKSAVTKNYSEKSINAILDYISTSRQMDLLQHFYETTLDALKDAKNERLWFKTNTKLGKLFFDLHEFTKLEKIVKQLKVSCKNEQGEEDQRKGTQLLEIYALEIQMYTEQKNNKALKWVYELATQAIHTKSAIPHPLILGTIRECGGKMHLRDGRFLDAHTDFFEAFKNYDESGSPRRTTCLKYLVLANMLIKSDINPFDSQEAKPFKNEPEIVAMTQMVQAYQDNDIQAFEQIMAAHQDSIMADPFIREHTEELMNNIRTQVLLRLIRPYTNVRISYLSQKLKVSQKEVIHLLVDAILDDGLEAKINEESGMIEMPKNKKKMMVTSLVVPNAGDQGTTKSDSKPGTSSEPSTTTSVTSSILQGPPATSSCHQELSMDGLRVWAERIDSIQSNIGTRIKF”: the “soluble on expression in E. coli” value is “not soluble”.
The entry for “MGSDKIHHHHHHMSFVSYAQNFEDVMLWRALRHIKNGYYIDVGAFSADEDSVTRAFYDQGWSGINIEPNPKYHEELVARRDRDINLRVAVSDRAEDRALYVIDDTGLTTLEPDIAEMHREKGFSKIDVVVPALTLEEIWTTHVPQDQDVHFLKIDVEGHELPVIKGLDWDRHRPWIVVVESTLPATQQLSETGIVEALAKADYEAVYWDGLNRYYVAKERAELTKYFDDPPNVFDGFRRSSEVEFEQRALQAEAELYLEREHVVRISKENWDHVHHALEVKFSALQEAMAAEAQAARRDVTQELVELRMQLSKQGMTSSFWTRFFFRPTGKPKKALRRLLFHTNGKPRGIFRNRVLKSNGQPRPAFLRWMASAEYQQLRRAVKVAASDESQHVLESGASTLSQNEGVFVGVLQSARTEKSH” is “not soluble”; for “MQSLSPTSRYLQALNEGTHQPDDVQKEAVDRLETLYQALTAKKSSATPPGGLIARLGKLLGKNEPDAQIPVRGLYMWGGVGRGKTWLMDLFYHSLPGERKLRLHFHRFMLRVHEELTALQGQIDPLDIIADRFKTETDVLCFDEFFVTDITDAMLLGGLMKALFARGITLVATSNIPPEELYRNGLQRARFLPAIDAIKQHCDIMNVDAGVDYRLRTLTQAHLWLTPLNDETRRQMDKLWLALAGAAREHAPTLEINHRPLSTLGVENQTLAVSFATLCVEARSQHDYIALSRLFHTVLLFDVPVMTPLMENEARRFIALVDEFYERHVKLVVSAAAPLYEIYQGERLKFEFQRCLSRLQEMQSAEYLKREHMPMAGDPLEHHHHHH” it is “not soluble”.
Consider “MGKALPFYLSPYPVDFWTNASFSDEEHEDAALSNSHLGRNAMVPPQGRSGPASWILRSVRDPGFAPCPPWSWIYHQFRIAWLRCVVRMDGRAPQVQTGQSTSPAKAASNATALQDQA”, for which the “soluble on expression in E. coli” value is “not soluble”.
As to “MEMFKMSREMLQLAEALASEKNVDAEVVFQALEFALSTAAKKKADREHMDVRVQINRDTGEYQTFRRWLIVADEDYTYPDVEKTIEEIQEEIPDTTIQIGEYYEEQLPNEGFGRQAAQTAKQIILQRIRDAEREQNLNEFLAVKEDIVSGTVKRVERHGIIVEVVAGKLDALIPRDQMIPRENFRSGDRIRALFLRVEEIGNTGRKQIILSRTSGDFLVKLYANEVPEIADGMLEIRAVARDPGQRAKVAVKANDQRIDPQGTCIGVRGSRVNAVSNELSGERIDVVLWSPEPAQFVMSALSPAEVSRIVIDEDKHAVDVIVAEDRLALAIGRGGQNVRLASDLTGWQLNIMTSAEADERNAAEDAAIRRLFMNHLNVDEETADVLVQEGFATLEEVAYVPAAELLAIEGFDEEIVDMLRNRARDAILTMAIAAEEKLGEVSDDMRNLEGVDADMLLSLAEAGITTRDDLAELAVDELIEITGVNEETAKAVILTAREHWFTEDKLEHHHHHH”, the “soluble on expression in E. coli” value was “soluble”.
Regarding “TDLDAVRIKVDTVNAKPGDTVRIPVRFSGIPSKGIANCDFVYSYDPNVLEIIEIEPGELIVDPNPTKSFDTAVYPDRKMIVFLFAEDSGTGAYAITEDGVFATIVAKVKSGAPNGLSVIKFVEVGGFANNDLVEQKTQFFDGGVNVG”, the “soluble on expression in E. coli” value was “soluble”.
The entry for “FHLGKCPNPPVQENFDVNKYPGRWYEIEKIPTTFENGRCIQANYSLMENGKIKVLNQELRADGTVNQIEGEATPVNLTEPAKLEVKFSWFMPSAPYHILATDYENYALVYSCTSISQSFHVDFAWILARNVALPPETVDSLKNILTSNNIDVKKMTVTDQVNCPKLSAHHHHHH” is “soluble”; for “MSLRIPDKNNLMIYELLLRDFTATGDLNGAMEKIGYLKSLGFNAVELMPVQEFDGNDSWGYNPCFHFALDKAYGTDHMYKAFIDKCHEVGMAVLFDVVYNHASGSHPFARLYWDTKNNRTAADNPWFNVKEPHPYGVFHDFNHDSPLVRAFVKRNLKFLLEEYRIDGFRFDMTKGFTQNSSTEATAGSYDASRIAILKDYNETVREVNPEAVVILEHFCDEKEESELAEEGMQLWRNLNNAYCQSAMGYPSNSDFTPLVTFGTTMPYGGWVGFMESHDEERTAFKQIAYGEGPLKSDINVRMKQLAANASFFFTAPGPKMVWQFGEMGYDVSIEEGGRTGRKPLHWEYLDNEARKGLCNTYAKLLKLRREHSELFNPGSTFSWLVKTANWTGGRFLTLAATNGKRLVVVGNFTAKPIEAITSFPVTGVWTNYLDGTKLHVTSIPTGLMIPAHECRVYINEGHHHHHH” it is “not soluble”.
The entry for “GPLGSEEEQFALALKMSEQEAREVNNQEEKEEELLRKAIAESLNS” is “soluble”.
As for “MVSKELVVCHLYGNLLNTYGDNGNLLMLKYLTEKMGVTFRSEIISIYEPFDPEKYDLVFVGGGQDFEQLIISEDIQNKKEALTSYIENDGVLLAICGGYQLLGHYYVGAQGEKIKGIGALDHYTLSQDNNRFIGDIEIYNEEFDETYYGFENHNGMTFLGEGERPLGTVKQGKGNNGQDNGEGVVYKNVFGSYFHGPILARNKNLGIRLIRTALEKKYGEPIAIPETLYK”, the “soluble on expression in E. coli” value was “not soluble”.
The entry for “MSLKTQQLLTIGQLAKFSGLHVKALRYYEKIGILNPTAIDKQNGYRYYSYAHIPYVNMIKICANYGLPLKQFTHYILDDGSIDMNAILKEAQLKIEEKERQLQSDERYLRFFSEQINFSQKLDKTTNLHIEQGNKDYFLLPFTGEMLSAKYYEAVRCALAEIEKCQMTFDDRVGCYFKYDDQQVNSFIAIKIKECQEDKTNFLSLCLNHRHIHAQHLTKDRIQPKIKELHQKESINEFLILETFESPYQLSQPHLEMQYVVDNTGEGHHHHHH” is “soluble”; for “TWTYILRQGDLPPGEMQRYEGGPEPVMVCNVDGEFFAVQDTCTHGDWALSDGYLDGDIVECTLHFGKFCVRTGKVKALPACKPIKVFPIKVEGDEVHVDLDNGELK” it is “soluble”.
Take “MADPKGFLTTPREEWPRRPAGERVRDWDEVYVPGALLPIVGRQADRCMDCGVPFCHEACPLGNLIPEWNDLVSRSDWRAASERLHATNNFPEFTGRLCPAPCEAGCVLAINQPAVTIKNVECAIADTAWEEGFVPPLPPERLSGRTVAVIGSGPAGLAAAQQLTRAGHTVAVYERDDRIGGLLRYGIPAFKMEKRHLERRVGQMRAEGTRFRTSAAVGRDVDAAALRTRYDAVVIATGATAWRELTVPGRELAGVHQAMEYLPLANRVCEGDLERSPLSAAGRHVVVVGGGDTGADCLGTAVREGAASVTQLDIYARPGAERDERAEPWPTYPRLYRLSAAHEEARDLRSAPAADADARLFAASTLRFTGDERGHVRALHLVGVDTGRRPLPGSERSLPADLVLLALGFSGPDRHDGLVDGLGLDMEPRGTITRDRGFATNVPGVFAAGDAARGQSLVVWAIAEGRAVAAAVDRHLSGGSTRLPAPVGPYDRPMTALEHHHHHH”: the “soluble on expression in E. coli” value is reported as “not soluble”.
The result for “RVLQELHESEAQNRALLNAIPDMMLHVCREGTILDFRAGNGCAYAAFGGNLRGRTIADLLPPGAAAQFMAQVGHALATGTMMVCEYELEGPGGLNTHEARIVANGTGTVLAIVRDVT” reads “not soluble”.
In the case of “MAHHHHHHMSSTNPSGCAGLVAASVTTAASTGTTAAATLAARSPTPPSVPASNSNNSGPGAAVASAPARWRIPSFRPQEYLRGYLFGGVGMGVPELQQYVGKVEPMIREMLEHTQQVHSIHSLRSHFQKSDEPGDEEVVLRWPSHLLQFMEFYNTTRALEDPENQDAGVKEAYLGLMRRLYYTEPRRRDCIPTKYLDPRSLLLVRMWWSMDAAQRKQWPLSLMDHKALNVIQIKDRYLCSYVMTAMQAKQYLMRLVARPEMRAMIDQWRRERNDGSTGAGSPQRSKL”, the “soluble on expression in E. coli” value is “soluble”.
The result for “MGHHHHHHSHGGVGKKEQLSVKKLRVVLFALCCNTEQAAEHFRNPQRRIRRWLRRFQASQGENLEGKYLSFEAEEKLAEWVLTQREQQLPVNEETLFQKATKIGRSLEGGFKISYEWAVRFMLRH” reads “not soluble”; that for “FPQLPPAPDDYPTFPDTSTWPVVFPELPAAPYGGPCRPPQHTSKAAAPRIPADRLPNHVAIVMDGNGRWATQRGLARTEGHKMGEAVVIDIACGAIELGIKWLSLYAFSTENWKRSPEEVRFLMGFNRDVVRRRRDTLKKLGVRIRWVGSRPRLWRSVINELAVAEEMTKSNDVITINYCVNYGGRTEITEATREIAREVAAGRLNPERITESTIARHLQRPDIPDVDLFLRTSGEQRSSNFMLWQAAYAEYIFQDKLWPDYDRRDLWAACEEYASRTRRFGSA”, “soluble”; that for “MKRKIIVACGGAVATSTMAAEEIKELCQSHNIPVELIQCRVNEIETYMDGVHLICTTARVDRSFGDIPLVHGMPFVSGVGIEALQNKILTILQG”, “soluble”.
The entry for “MMEEQLIPIQWKDDALVLLDQTLLPNEIVYESFKTAESVWDAIQVMKVRGAPAIGVSAAYGVYLGIKEFAESTEEGFMDEVRKVCTYLATSRPTAVNLFWALERMESVATDNIHLSISQLKNRLLEEAKEIHREDEEINRQIGEHALTLFHDGMGVLTHCNAGALATTKYGTATAPMYLAKEKGWDLKIYSDETRPRLQGSTLTALELQRAGIDVTVITDNMAAMVMSQGKIDAVIVGCDRVAANGDVANKIGTLGVSILAKYYNIPFYVAAPTPTIDLKTSTGKEIPIEERDASEVINRFGKYSAPKESKVYNPAFDVTPHENVTAIITEKGIVKAPFTENLKKLFQ” is “not soluble”.
The result for “MRKIRLVYRRFPNRVIMREDEVIEDFGDVIVAKSEFTGMLAPLRVNGVEVINNGYKMVYFAFIGRDFDVLKIYDPSGNFKGLYVDVLDYTRREGNTVEILDLFLDIFIFPEGEYYLLDEDELEMAFNYGIISREKLLKAYDTAERIIGQIKRGKFPPKIVWEYSL” reads “not soluble”; that for “MSLRIESGVCYVINEFCALGNTYMPIDKLVKNCINVLNVKKEEVEKAIYECTLSQKIKVEIINGENCVFTMEYYYCEIGITRKIITLAYDSYKSLEIDVDQKIIQFENENKIKFAPSQVEAIEGAFSNGIEVITGGPGTGKTTIIRCITYIFEELNMKVFMAAPTGRAAKRMSESTGREAKTIHRMLELGYEDEVFFDNNNYSTLQCDVVIIDEASMIDVVLMNSLLKSIGMGTRVIIVGDVDQLPSVGPGNVLRDIIESKCVKVIRLNNIFRQAKESMITVNAHKINSGEMPLLNKKDKDFYFIREDNAEAITNTIISLVYKRLPLFNKSWKAARDIQVLAPMKKGIAGVANLNVSLQSIINPPHKSKDEIKFRDNIFRVGDKVMQIKNNYMLKEGHHHHHH”, “not soluble”; that for “MEKETKEKIEKTVIEILSESDMKEITEFKVRKLASEKLAIDLSEKSHKAFVRSVVEKFLDEERAREYENSQVNKEEEDGDKDCGKGNKEFDDDGDLIICRLSDKRRVTIQEFKGKSLVSIREYYKKDGKELPTSKGISLTDEQWSTFKKNMPAIENAVKKMESRV”, “soluble”.

Source of the values: the DeepSol protein solubility set.
